The labels stand for the following.
B1: L6-2C09 (protein)
chain: MGSRLDKSKVINSALELLNEVGIEGLTTRKLAQKLGVEQPTLYWHVKNKRALLDALAIEMMDRHQTHYCPLEGESWQDFLRNTAKSMRCALLSHRDGAKVCLGTRWTEQLYETAENQLAFLCQQGFSLENALYAMSAVRVFTLGCVLFDQELQVAKEERETPTTASMPPLLRQAWELKDHQGAEPAFLFGLELIICGLEKQLKCESGS
modifications: Sulfonylurea responsive repressor L6-2C09
B2: L6-4D10 (protein)
chain: B1 chain with T83N, Q109K, L110Q, T113S, Q117M, M135V, L152S
modifications: Sulfonylurea responsive repressor L6-4D10
B3: L6-5H12 (protein)
chain: B1 chain with Q65A, T83N, Q109K, L110Q, L171V
modifications: Sulfonylurea responsive repressor L6-5H12
B4: L6-2D07 (protein)
chain: B1 chain with Y68F, L110Q, Q117M, L152S, L171V
modifications: Sulfonylurea responsive repressor L6-2D07
B5: L6-3H02: SuR polypeptide, SEQ ID NO: 94 (protein)
chain: B1 chain with Q65A, L110H, T113S, Q117M, M135V, L152S, L171V, D179V
modifications: Sulfonylurea responsive repressor L6-3H02
B6: L6-5F05 (protein)
chain: B1 chain with Q65A, Y68I, T83N, L110Q, T113A, M135V
modifications: Sulfonylurea responsive repressor L6-5F05
B7: L6-6F07 (protein)
chain: B1 chain with Q65A, Y68L, L110Q, T113S, Q117M, L152S
modifications: Sulfonylurea responsive repressor L6-6F07
B8: L6-5H06 (protein)
chain: B1 chain with Y68I, T83N, Q109K, L110Q, Q117M, M135V, L171V
modifications: Sulfonylurea responsive repressor L6-5H06
B9: L6-5G06 (protein)
chain: B1 chain with T83N, L110Q, M135V, A174G
modifications: Sulfonylurea responsive repressor L6-5G06

Numbering of substitutions follows the chain as printed.

The test system of one experiment is lacZ under control of the tetA promoter (PtetA) in E. coli KM3. It counts as cell-based.
Settings: not given
Turning to B1, the “0.2 ppm 48 hr/Control 84 hr” value amounted to 2.6.
On the same count and under the same terms, the value for B2 was 3.7; that for B3 was 4.2; that for B4 was 3.4.
On the same count and under the same terms, the value for B5 was 2.8.
On the same count and under the same terms, to B6 belongs 4.1.
Regarding B7, the “0.2 ppm 48 hr/Control 84 hr” value was 2.3.
The same measure, in the same setting: to B8 belongs 2.7; to B9, 4.9.

The experiment is the same for the next values; noted with them: 0.2 ppm chlorsulfuron as inducer, M9 assay plates, 48 hr at 30° C., ImageJ colony color intensity.
B1: the “0.2 ppm 48 hr (colony color intensity, induction by chlorsulfuron)” value amounted to 13.6.
On the same count and under the same terms, to B2 belongs 18.4; to B3, 23.7; to B4, 20.0.
Still for that read-out and setting: to B5 belongs 15.8; to B6, 22.0; to B7, 11.6.
The same measure, in the same setting: the value for B8 was 13.7; that for B9 was 34.4.

Still in this experiment, the particulars now being: no inducer, M9 assay plates, 84 hr at 30° C., ImageJ colony color intensity.
With B1, the “Control 84 hr (background activity, no inducer)” value was 5.2.
The same measure, in the same setting: to B2 belongs 5.0; to B3, 5.7.
As for B4, the “Control 84 hr (background activity, no inducer)” value is given as 5.8.
As for B5, the “Control 84 hr (background activity, no inducer)” value is given as 5.6.
The same measure, in the same setting: to B6 belongs 5.4; to B7, 5.1; to B8, 5.1.
As for B9, the “Control 84 hr (background activity, no inducer)” value is 7.0.

Source of the values: patent US9206432B2, “Sulfonylurea-responsive repressor proteins” (priority 2008, dated 2015).
